Key:
[1] = target: neuropilin-1 (NRP1) on HEK293 cells overexpressing NRP1 (UniProt O14786); assay: flow cytometry, HEK293-NRP1 vs HEK293
[2] = target: neuropilin-1 (NRP1), analyte in SPR (UniProt O14786 22-644, limits assumed); assay: SPR, Carterra LSA, antibody coupled
Protocol: SPR experiments were performed on a Carterra LSA SPR biosensor equipped with a HC30M chip at 25° C. in HBS-TE. Antibodies were diluted to 10 μg/mL and amine-coupled to the sensor chip by EDC/NHS activation, followed by ethanolamine HCl quenching. Increasing concentrations of analyte were flowed over the sensor chip in HBS-TE with 0.5 mg/mL BSA with 5-minute association and 15-minute dissociation. Following each injection cycle the surface was regenerated with 2× 30-second injections of IgG elution buffer (Thermo). Data were analyzed in Carterra's Kinetics Tool software with 1:1 binding model.

Binder	100 nM FACS (MFI Ratio) [1]	binding result [2]
NRP1-70 (VHH) VHH: EVQLVESGGGLVQPGGSLRLSCAASGDTFSRYTMGWFRQAPGKEREFVATIWWTFDAPYYADSVKGRFTISADNSKNTAYLQMNSLKPEDTAVYYCAARSPMSPTWDWGQGTLVTVSS	1.9	–
NRP1-53 (VHH) VHH: EVQLVESGGGLVQPGGSLRLSCAASGRTFNRYPMGWFRQAPGKEREWVAAITPQGVPNYADSVKGRFTISADNSKNTAYLQMNSLKPEDTAVYYCAIHTSREIWGQGTLVTVSS	1.9	–
NRP1-82 (VHH) VHH: EVQLVESGGGLVQPGGSLRLSCAASGRTFNRYPMGWFRQAPGKEREWVSAINSNGNRYYYADSVKGRFTISADNSKNTAYLQMNSLKPEDTAVYYCAIHTSREIWGQGTLVTVSS	2	–
NRP1-296 (antibody, IgG2, V domains shown) VH: EVQLLESGGGLVQPGGSLRLSCAASGFTFSGHAMSWVRQAPGKGLEWVSGISGSGGKIYYADSVKGRFTISRDNSKNTLYLQMNSLRAEDTAVYYCTRDVRSKDYVRGSSRYHGGMDVWGQGTLVTVSS VL: DIQMTQSPSSLSASVGDRVTITCRASHSISRYLNWYQQKPGKAPKLLIYSASSLRSGVPSRFSGSGSGTDFTLTISSLQPEDFATYYCQQRYITPWTFGGGTKVEIK	1.5	–
NRP1-269 (antibody, IgG2, V domains shown) VH: EVQLLESGGGLVQPGGSLRLSCAASGFTFSNYVMTWVRQAPGKGLEWVSTISGSGGGTFYADSVKGRFTISRDNSKNTLYLQMNSLRAEDTAVYYCATDTVWASAWGSWGQGTLVTVSS VL: DIQMTQSPSSLSASVGDRVTITCRASQTIRKYLNWYQQKPGKAPKLLIYAASSLQSGVPSRFSGSGSGTDFTLTISSMQPEDFATYYCQQSYSTPITFGGGTKVEIK	1.9	–
NRP1-251 (antibody, IgG2, V domains shown) VH: EVQLLESGGGLVQPGGSLRLSCAASGSTFSSHAMSWVRQAPGKGLEWVSGISASGGSTHYADSVKGRFTISRDNSKNTLYLQMNSLRAEDTAVYYCARLKRGGTNLVRKATRYQFYGMDAWGQGTLVTVSS VL: DIQMTQSPSSLSASVGDRVTITCRASQSVSSHLNWYQQKPGKAPKLLIYDASSLQSGVPSRFSGSGSGTDFTLTISSLQPEDFATYYCQQSYKTPVTFGGGTKVEIK	1.5	–
NRP1-27 (VHH) VHH: EVQLVESGGGLVQPGGSLRLSCAASGFRFGDYPMGWFRQAPGKEREFVSAISWSGGSTVYADSVKGRFTISADNSKNTAYLQMNSLKPEDTAVYYCALGPVRRSRLEWGQGTLVTVSS	2.1	no binding
NRP1-43 (VHH) VHH: EVQLVESGGGLVQPGGSLRLSCAASGYFASWYYMGWFRQAPGKEREWVATIYSPSGSAVYADSVKGRFTISADNSKNTAYLQMNSLKPEDTAVYYCARDSFYDGSGYSPWGQGTLVTVSS	1.5	–

The remaining lines, values ahead:

100 nM FACS (MFI Ratio) [1]	binding result [2]	Binder
1.8	–	NRP1-105 (VHH) VHH: EVQLVESGGGLVQPGGSLRLSCAASGTTFRINVMGWFRQAPGKERELVAAMRWSSSSTDYADSVKGRFTISADNSKNTAYLQMNSLKPEDTAVYYCAASIEGVSGRWGQGTLVTVSS
1.9	–	NRP1-58 (VHH) VHH: EVQLVESGGGLVQPGGSLRLSCAASGRTFNRYPMGWFRQAPGKEREWVAGINSGGGTWYADSVKGRFTISADNSKNTAYLQMNSLKPEDTAVYYCAIHTSREIWGQGTLVTVSS
1.5	–	NRP1-121 (antibody, IgG2, V domains shown) VH: QVQLVQSGAEVKKPGSSVKVSCKASGGTFSNYAISWVRQAPGQGLEWMGGIIPINYAQKFQGRVTITADESTSTAYMELSSLRSEDTAVYYCVRRVVGATPFDYWGQGTLVTVSS VL: DIQMTQSPSSLSASVGDRVTITCRASQIIRRYLNWYQQKPGKAPKLLIYPASSLQSGVPSRFSGSGSGTDFTLTISSLQPEDFATYYCQQAYSTPMFGQGTKVEIK
1.7	–	NRP1-84 (VHH) VHH: EVQLVESGGGLVQPGGSLRLSCAASGRTFSNYKMGWFRQAPGKEREFVARIFTDDGDSYYADSVKGRFTISADNSKNTAYLQMNSLKPEDTAVYYCAKWDGLGTLWGQGTLVTVSS
1.6	–	NRP1-44 (VHH) VHH: EVQLVESGGGLVQPGGSLRLSCAASGRSFSTYIMGWFRQAPGKERELVARITSGGYTYADSVKGRFTISADNSKNTAYLQMNSLKPEDTAVYYCAADVSPSYGSRWYWGQGTLVTVSS
1.9	–	NRP1-263 (antibody, IgG2, V domains shown) VH: EVQLLESGGGLVQPGGSLRLSCAASGFTFKKYAMSWVRQAPGKGLEWVSTISGSGRSTYYADSVKGRFTISRDNSKNTLYLQMNSLRAEDTAVYYCARDLARGTMPRGVIIPHNWFDPWGQGTLVTVSS VL: DIQMTQSPSSLSASVGDRVTITCRASQTISNYLNWYQQKPGKAPKLLIYGATSLQSGVPSRFSGSGSGTDFTLTISSLQPEDFATYYCQQSYNTPTTFGGGTKVEIK
1.6	–	NRP1-297 (antibody, IgG2, V domains shown) VH: EVQLLESGGGLVQPGGSLRLSCAASGFTFGRYAMSWVRQAPGKGLEWVSSISGSGGSTYYTDSVKGRFTISRDNSKNTLYLQMNSLRAEDTAVYYCVRALAGRRDHWGQGTLVTVSS VL: DIQMTQSPSSLSASVGDRVTITCRTSQRISTSLNWYQQKPGKAPKLLIYGASNLQSGAPSRFSGSGSGTDFTLTISSLQPEDFATYYCQQSYFTPITFGGGTKVEIK
1.7	–	NRP1-233 (antibody, IgG2, V domains shown) VH: EVQLLESGGGLVQPGGSLRLSCAASGFSFSTYAMTWVRQAPEKGLEWVSSIGGSGRSTYYADSVKGRFTISRDNSKNTLYLQMNSLRAEDTAVYYCARLKRGGTNLVRKATRYQFYGMDAWGQGTLVTVSS VL: DIQMTQSPSSLSASVGDRVTITCRASQSISSYLAWYQQKPGKAPKLLIYAGSGLQSGVPSRFSGSGSGTDFTLTISSLQPEDFATYYCQQSFTSPLTFGGGTKVEIK
2	–	NRP1-245 (antibody, IgG2, V domains shown) VH: EVQLLESGGGLVQPGGSLRLSCAASGLTFSRYAMSWVRQAPGKGLEWVSTISGRGGSTNYADSVKGRFTISRDNSKNTLYLQMNSLRAEDTAVYYCAKDSARFISPPRGIRIRGVVLSGFDSWGQGTLVTVSS VL: DIQMTQSPSSLSASVGDRVTITCRASQSISTSLNWYQQKPGKAPKLLIYATSSLQSGVPSRFSGSGSGTDFTLTISSLQPEDFATYYCQQAYSTPLTFGGGTKVEIK
1.5	–	NRP1-253 (antibody, IgG2, V domains shown) VH: EVQLLESGGGLVQPGGSLRLSCAASGFTFSNHAMSWVRQAPGKGLEWVSTISGSGGSTYYVDSVKGRFTISRDNSKNTLYLQMNSLRAEDTAVYYCARGGPAPLFDYWGQGTLVTVSS VL: DIQMTQSPSSLSASVGDRVTITCRSSQSISSYLNWYQQKPGKAPKLLIYAASNFQSGVPSRFSGSGSGTDFTLTISSLQPEDFATYYCQQTYSIPLTFGGGTKVEIK
1.5	–	NRP1-277 (antibody, IgG2, V domains shown) VH: EVQLLESGGGLVQPGGSLRLSCAASGFRFSTYAMSWVRQAPGKGLEWVSTVSGSGAYTYYADSVKGRFTISRDNSKNTLYLQMNSLRAEDTAVYYCADIAVAGTWGQGTLVTVSS VL: DIQMTQSPSSLSASVGDRVTITCRASQRISDYLNWYQQKPGKAPKLLIYAASTLQSGVPSRFSGSGSGTDFTLTISSLQPEDFATYYCQQSFSTPITFGGGTKVEIK
1.5	–	NRP1-62 (VHH) VHH: EVQLVESGGGLVQPGGSLRLSCAASGSSLSNYTMGWFRQAPGKERELVATIWWTVGAPYYADSVKGRFTISADNSKNTAYLQMNSLKPEDTAVYYCAAYQRGWGDWGQGTLVTVSS
